Test results taken from the supplement of paper PMC10567573.

B1: BCL2L13 (parent)
chain: QSLDQEILLKVKTEIEEELKSLDK
B2: RSPH3 (parent)
chain: LELQRQREARKRALARKQAQEQLR

Variants of: B1
Test: protein stability index of a GFP-peptide fusion (GPS, HEK-293T) (PSI 1-6); higher = more stable
Settings: c terminus: a fixed tail appended
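Note: lentivirally expressed fusions sorted by FACS into six bins by GFP to DsRed ratio, PSI derived from sequencing read proportions per bin multiplied by bin number.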

Protein stability index: each site, then its substitutions
E17: G 4.93, P 4.95
L3: G 5.16, Y 5.07
L22: Q 5.3
S21: Q 4.86, M 4.67, C 4.98
E16: W 3.66
E6: Y 3.47, V 3.92
K12: V 4.1, I 2.6
L9: M 4.49, E 5.45
K24: M 3.67
T13: Q 3.67, Y 4.14, C 3.28
D23: G 4.41
Q1: A 5.04, H 4.92, T 4.6, S 4.54
I7: A 5.66, L 5.32
S2: M 4.2
K10: W 3.15, M 3.09, Y 3.85
L8: I 4.14
E18: A 4.02

Variants of: B2
Test: as above
Settings: c terminus: a fixed tail appended

Protein stability index of substitutions, site by site:
L1: A 3.16, C 4.05, D 4.08, E 4.26, F 3.22, G 4.14, H 3.96, I 3.29, K 3.78, M 4.24, N 4.27, P 4.45, Q 3.82, R 4.4, S 3.85, T 3.34, V 3.64, W 2.71, Y 3.76
E2: A 3.1, C 3.13, D 3.91, F 2.56, G 2.95, H 3, I 2.34, K 4.11, L 2.6, M 2.92, N 3.69, P 3.58, Q 3.93, R 3.57, S 3.56, T 3.15, V 2.79, W 2.59, Y 2.52
L3: A 4.14, C 3.12, D 4.14, E 5.04, F 3.81, G 4.43, H 4.42, I 3.74, K 4.17, M 3.6, N 3.86, P 4.18, Q 3.9, R 3.54, S 4.14, T 4.35, V 4.29, W 3.52, Y 3.89
Q4: A 3.17, C 3.52, D 3.96, E 4.3, F 3.12, G 3.41, H 4.2, I 2.95, K 3.55, L 3.22, M 2.32, N 3.76, P 3.51, R 4.02, S 4.27, T 4.06, V 3.43, W 3.43, Y 3.03
R5: A 5.05, C 4.09, D 4.27, E 3.68, F 3.91, G 4.34, H 4.21, I 3.77, K 4.25, L 3.25, M 4.03, N 3.72, P 3.89, Q 4.32, S 4.16, T 4.17, V 4.36, W 4.02, Y 4.19
Q6: A 4.14, C 3.17, D 4.05, E 4.46, F 3.35, G 4.55, H 2.96, I 2.98, K 4.63, L 3.33, M 2.92, N 3.73, P 3.64, R 3.41, S 3.76, T 3.87, V 3.37, W 4.26, Y 3.71
R7: A 3.61, C 3.87, D 4.49, E 4.31, F 4.1, G 4.52, H 4.29, I 3.25, K 3.56, L 4.2, M 3.52, N 4.08, P 3.71, Q 4.01, S 4.36, T 4.43, V 4.02, W 3.46, Y 3.85
E8: A 3.99, C 3.64, D 3.81, F 3.24, G 3.66, H 3.83, I 2.38, K 3.95, L 2.98, M 3.43, N 3.44, P 3.67, Q 3.71, R 4.26, S 3.62, T 4.06, V 3.39, W 3, Y 3.46
A9: C 4.05, D 3.63, E 3.85, F 2.73, G 4.04, H 4.07, I 3.39, K 3.68, L 3.47, M 3.84, N 3.45, P 4, Q 3.32, R 4.11, S 4.01, T 3.31, V 3.71, W 2.86, Y 3.71
R10: A 4.57, C 3.43, D 4.38, E 4.08, F 3.52, G 4.26, H 3.79, I 3.22, K 3.07, L 3.62, M 3.76, N 4.28, P 4.3, Q 4.43, S 4.2, T 3.92, V 3.38, W 3.53, Y 3.17
K11: A 3.84, C 2.94, D 4.51, E 4.35, F 3.46, G 4.44, H 4.44, I 3.27, L 3.82, M 3.5, N 3.8, P 3.82, Q 4.35, R 3.78, S 4.11, T 3.46, V 2.74, W 2.92, Y 3.07
R12: A 4.23, C 3.9, D 4.15, E 4.71, F 2.82, G 4.23, H 3.71, I 4.21, K 3.97, L 3.22, M 4.18, N 4.45, P 4.25, Q 4.33, S 3.81, T 3.79, V 3.81, W 3.21, Y 3.77
A13: C 3.24, D 4.07, E 4.5, F 3.39, G 3.33, H 4.06, I 3.76, K 3.36, L 3.35, M 3.29, N 4.25, P 4.14, Q 4.45, R 4.18, S 3.77, T 3.85, V 3.78, W 3.73, Y 3.49
L14: A 4.46, C 3.74, D 4.66, E 4.35, F 3.74, G 4.75, H 4.32, I 3.67, K 3.46, M 3.32, N 4.04, P 4.39, Q 4.53, R 4.4, S 4.42, T 4.19, V 4.13, W 2.65, Y 3.22
A15: C 3.42, D 3.94, E 4.31, F 3.56, G 4.12, H 3.96, I 3.15, K 3.57, L 4.05, M 2.79, N 4.32, P 4.2, Q 2.39, R 3.15, S 4.04, V 3.69, W 3.53, Y 3.61
R16: A 4.19, C 3.57, D 3.99, E 4.26, F 3.43, G 4.46, H 4.14, I 3.7, K 3.93, L 4.25, M 3.39, N 4.6, P 4.32, Q 3.96, S 3.27, T 4.02, V 3.17, W 3.74
